Read-outs that look alike come from different tables or passages of the source.
T1: CEACAM1 (Sino Biological) (human, UniProt P13688 35-428, limits assumed)
T1 construct: may be the same as CEACAM1-HIS; also called hCEACAM1; biotinylated soluble CEACAM1
T1 sequence: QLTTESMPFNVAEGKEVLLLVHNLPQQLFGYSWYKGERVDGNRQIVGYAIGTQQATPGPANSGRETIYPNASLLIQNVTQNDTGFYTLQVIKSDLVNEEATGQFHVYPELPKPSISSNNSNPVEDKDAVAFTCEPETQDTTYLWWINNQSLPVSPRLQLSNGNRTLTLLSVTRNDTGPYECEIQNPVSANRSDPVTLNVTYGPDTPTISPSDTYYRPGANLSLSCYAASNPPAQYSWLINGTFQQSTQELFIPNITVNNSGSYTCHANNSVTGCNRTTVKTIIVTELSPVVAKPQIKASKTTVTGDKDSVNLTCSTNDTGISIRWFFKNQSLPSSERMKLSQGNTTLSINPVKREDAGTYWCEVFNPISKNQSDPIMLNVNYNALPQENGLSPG

T2: CEACAM3 (Sino Biological) (human, UniProt P40198 35-155, limits assumed)
T2 construct: also called hCEACAM3
T2 sequence (looked up): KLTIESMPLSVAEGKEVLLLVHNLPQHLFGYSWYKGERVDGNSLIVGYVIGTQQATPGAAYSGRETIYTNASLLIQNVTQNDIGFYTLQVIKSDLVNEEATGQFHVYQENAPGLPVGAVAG

T3: CEACAM5 (Sino Biological) (human, UniProt P06731 35-685)
T3 construct: also called hCEACAM5
T3 sequence (looked up): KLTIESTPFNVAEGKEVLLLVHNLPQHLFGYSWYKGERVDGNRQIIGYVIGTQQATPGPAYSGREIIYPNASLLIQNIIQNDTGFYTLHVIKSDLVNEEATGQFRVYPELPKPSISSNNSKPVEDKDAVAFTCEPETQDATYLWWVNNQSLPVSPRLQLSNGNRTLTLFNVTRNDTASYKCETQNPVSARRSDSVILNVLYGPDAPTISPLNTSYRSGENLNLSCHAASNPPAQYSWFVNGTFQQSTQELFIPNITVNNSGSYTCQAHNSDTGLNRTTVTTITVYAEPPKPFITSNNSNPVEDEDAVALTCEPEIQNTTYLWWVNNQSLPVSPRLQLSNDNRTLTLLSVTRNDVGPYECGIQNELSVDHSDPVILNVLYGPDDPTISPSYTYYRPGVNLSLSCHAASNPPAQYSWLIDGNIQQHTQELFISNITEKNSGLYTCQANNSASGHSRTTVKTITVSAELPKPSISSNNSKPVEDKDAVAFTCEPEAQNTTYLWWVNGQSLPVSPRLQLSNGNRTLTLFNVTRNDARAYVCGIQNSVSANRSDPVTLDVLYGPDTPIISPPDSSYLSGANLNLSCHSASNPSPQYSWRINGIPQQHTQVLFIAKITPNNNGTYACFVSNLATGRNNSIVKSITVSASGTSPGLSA

T4: CEACAM6 (Sino Biological) (human, UniProt P40199 35-320)
T4 construct: also called hCEACAM6
T4 sequence (looked up): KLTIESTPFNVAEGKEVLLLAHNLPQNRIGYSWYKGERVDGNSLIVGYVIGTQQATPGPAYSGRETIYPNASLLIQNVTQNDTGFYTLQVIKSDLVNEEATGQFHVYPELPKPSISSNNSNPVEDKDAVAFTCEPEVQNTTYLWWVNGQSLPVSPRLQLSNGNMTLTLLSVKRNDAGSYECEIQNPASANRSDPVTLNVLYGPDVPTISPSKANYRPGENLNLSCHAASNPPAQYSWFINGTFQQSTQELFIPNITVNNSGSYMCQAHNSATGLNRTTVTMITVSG


How the values were obtained:
[1] = molecular target: T1, CEACAM1 (Sino Biological); experiment: single-point competition ELISA: crude periplasmic scFv extract mixed 1:1 with VH2 N56Q/Vk4 S27(f)A IgG (0.246 µg/mL) on plate-coated CEACAM1 (0.0625 µg/mL); remaining IgG detected with anti-human-HRP, absorbance 450 nm
Description: Nunc Immuno MaxiSorp 96 well flat bottom microtitre plates were coated with CEACAM1 at 0.0625 μg/ml overnight. Plates were subsequently washed and blocked for 1 hour at room temperature with 3% BSA/PBS. Periplasmic extracts were diluted 1:1 with VH2 N56Q/Vk4 S27(f)A IgG (parental RSB02 IgG) at 0.246 μg/mL in 6% BSA/PBS. The diluted periplasmic extract was then added to the blocked plate (100 μL per well) and the samples incubated on the plate for 1 hour at room temperature. Plates were subsequently washed and the binding of VH2 N56Q/Vk4 S27(f)A IgG was detected with an anti-human-HRP antibody (Sigma, Gillingham, UK) and TMB substrate (Invitrogen). The reaction was stopped with 1 M HCl, absorbance read at 450 nm on a Dynex Technologies MRX TC II plate reader and the binding data plotted.
Improved clones were identified on the basis of activity in the competition ELISA relative to the parental RSB02 scFv assayed on the same plate. Greater than 7300 peripreps were analyzed in total from all three libraries. Positive hits were picked into ‘cherry’ plates, re-tested within the competition ELISA to confirm results and sequenced. Dominant single sequence clones were identified in both the VH B1 (˜41% of clones sequenced after round 3 were a single dominant clone) and VL libraries (˜20% of clones were single dominant clones from those sequenced from round 3 and 4).

[2] = molecular target: T1, CEACAM1 (Sino Biological); experiment: phage binding assay
[3] = molecular target: T1, CEACAM1 (Sino Biological); experiment: SPR single-cycle
In short: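 Humanized affinity-matured IgGs from crude supernatants captured on Protein A to ~100 RU, with CEACAM1 analyte injected at 25–100 nM (three-point, two-fold) in HBS-P+ without regeneration. 200 s association per injection, 300 s single dissociation; reference-channel and blank subtracted.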

[4] = molecular target: T1, CEACAM1 (Sino Biological); experiment: SPR multi-cycle, IgG on Protein A
[5] = molecular target: T2, CEACAM3 (Sino Biological); experiment: binding ELISA on plate-coated CEACAM (0.5 µg/mL); antibody at 1.67, 0.062 and 0.0069 µg/mL; signal as % of parent IgG on CEACAM1 at 1.67 µg/mL on the same plate
[6] = molecular target: T3, CEACAM5 (Sino Biological); experiment: as above
[7] = molecular target: T4, CEACAM6 (Sino Biological); experiment: as above
[8] = molecular target: T2, CEACAM3 (Sino Biological); experiment: as above; remark: listed apart in the source
[9] = molecular target: T3, CEACAM5 (Sino Biological); experiment: as above; remark: listed apart in the source
[10] = molecular target: T4, CEACAM6 (Sino Biological); experiment: as above; remark: listed apart in the source
[11] = molecular target: T2, CEACAM3 (Sino Biological); experiment: as above; remark: listed apart in the source

| Binder | binding result [1] | binding result [2] | Kd [3] [nM] | fold better than Parent (KD) [3] [fold] | Kd [4] [nM] | koff [4] [s⁻¹] | kon [4] [M⁻¹ s⁻¹] | relative KD to Parent [4] [ratio] | binding result [5] | binding result [6] | binding result [7] | binding result [8] | binding result [9] | binding result [10] | binding result [11] |
| --- | --- | --- | --- | --- | --- | --- | --- | --- | --- | --- | --- | --- | --- | --- | --- |
| Parent (scFv, also called parent humanized scFv; parental RSB02 scFv; not shown: C-terminal Flag tag from phagemid pANT65) scFv: EVQLLESGGGLVQPGGSLRLSCAASGFSFSDYYLYWVRQAPGKGLEWVATISVGGGQTSYADSVKGRFTISRDNSKNTLYLQMNSLRAEDTAMYYCTRGLYYGPAWFAYWGQGTLVTVSSGGGGSGGGGSGGGGSDIVMTQSPDSLAVSLGERATINCKSSQSLLNSANQKNYLAWYQQKPGQPPKLLIYFASTRESGVPDRFSGSGSGTDFTLTISSLQAEDVAVYYCQQHYSTPWTFGGGTKVEIK | binds |  |  |  |  |  |  |  |  |  |  |  |  |  |  |
| parent VH2 N56Q/Vκ4 S27(f)A scFv displayed on phage (scFv, also called parent scFv hyper phage; parent M13 helper phage; not shown: C-terminal Flag tag and gene III fusion) scFv: EVQLLESGGGLVQPGGSLRLSCAASGFSFSDYYLYWVRQAPGKGLEWVATISVGGGQTSYADSVKGRFTISRDNSKNTLYLQMNSLRAEDTAMYYCTRGLYYGPAWFAYWGQGTLVTVSSGGGGSGGGGSGGGGSDIVMTQSPDSLAVSLGERATINCKSSQSLLNSANQKNYLAWYQQKPGQPPKLLIYFASTRESGVPDRFSGSGSGTDFTLTISSLQAEDVAVYYCQQHYSTPWTFGGGTKVEIK |  | binds |  |  |  |  |  |  |  |  |  |  |  |  |  |
| He3/L20 (antibody, IgG4, V domains shown, IgG4 S241P, kappa; also called He3 / 20) VH: EVQLLESGGGLVQPGGSLRLSCAASGFSFSDYYLYWVRQAPGKGLEWVATISVGGGQTSYADSVKGRFTISRDNSKNTLYLQMNSLRAEDTAMYYCTRALTYGPAWLAYWGQGTLVTVSS VL: DIVMTQSPDSLAVSLGERATINCKSSQSLLNSANQKNYLAWYQQKPGQPPKLLIYFASTRESGVPDRFSGSGSGTDFTLTISSLQAEDVAVYYCQSHFPYPLTFGGGTKVEIK |  |  | 74 | 2.15 | 25.5 | 0.0078 | 306000 | 3.34 | no binding (tested: 1.67 µg/mL) | no binding (tested: 1.67 µg/mL) | no binding (tested: 1.67 µg/mL) |  |  |  |  |
| Parent VH/L1 (antibody, IgG4, V domains shown, IgG4 S241P, kappa; also called VHp/L1; VH2 N56Q / 1) VH: EVQLLESGGGLVQPGGSLRLSCAASGFSFSDYYLYWVRQAPGKGLEWVATISVGGGQTSYADSVKGRFTISRDNSKNTLYLQMNSLRAEDTAMYYCTRGLYYGPAWFAYWGQGTLVTVSS VL: DIVMTQSPDSLAVSLGERATINCKSSQSLLNSANQKNYLAWYQQKPGQPPKLLIYFASTRESGVPDRFSGSGSGTDFTLTISSLQAEDVAVYYCQSHYPFYYTFGGGTKVEIK |  |  | 41 | 3.87 | 125 | 0.00413 | 33100 | 0.68 |  |  |  | no binding (tested: 1.67 µg/mL) | no binding (tested: 1.67 µg/mL) | no binding (tested: 1.67 µg/mL) |  |
| He9/L6 (antibody, IgG4, V domains shown, IgG4 S241P, kappa; also called He9 / 6) VH: EVQLLESGGGLVQPGGSLRLSCAASGFSFSDYYLYWVRQAPGKGLEWVATISVGGGQTSYADSVKGRFTISRDNSKNTLYLQMNSLRAEDTAMYYCARAMYYGPAWFAYWGQGTLVTVSS VL: DIVMTQSPDSLAVSLGERATINCKSSQSLLNSANQKNYLAWYQQKPGQPPKLLIYFASTRESGVPDRFSGSGSGTDFTLTISSLQAEDVAVYYCQSHYPFSFTFGGGTKVEIK |  |  | 22 | 7.1 | 39.6 | 0.00151 | 38100 | 4.82 |  |  |  |  |  |  | no binding (tested: 1.67 µg/mL) |
